Assay results published in patent US20160145343A1 (UNIVERSITY OF PITTSBURGH OF THE COMMONWEALTH SYSTEM OF …, published 2016).
Positions count from the first letter of the chain named. Where no end group is shown, it is not given here. The star is where a group is joined. αGalNAc = CC(=O)N[C@@H]1[C@@H](O)[C@@H](O)[C@@H](CO)O[C@@H]1*; Galβ1‑3GalNAc = TF-antigen

T1: Synthetic peptide HGVTSAPDTRPAPGSTAPP
T1 construct: Unglycosylated; also called 346; MUC1 repeat
T1 peptide: HGVTSAPDTRPAPGSTAPP

T2: Synthetic peptide (GVTSAPDTRPAPGSTAPPAH)2
T2 peptide: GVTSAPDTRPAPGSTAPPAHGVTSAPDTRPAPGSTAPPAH

T3: SEQ ID NO: 346 glycopeptide with TF-antigen at Thr4
T3 construct: also called T4^TF
T3 peptide: HGVT(Galβ1‑3GalNAc)SAPDTRPAPGSTAPP

T4: SEQ ID NO: 346 glycopeptide with TF-antigen at Thr9
T4 construct: also called T9^TF
T4 peptide: HGVTSAPDT(Galβ1‑3GalNAc)RPAPGSTAPP

T5: SEQ ID NO: 346 glycopeptide with Tn-antigen at Thr4, Thr9 and Thr16
T5 construct: also called T4^Tn/T9^Tn/T16^Tn
T5 peptide: HGVT(αGalNAc)SAPDT(αGalNAc)RPAPGST(αGalNAc)APP

T6: SEQ ID NO: 346 glycopeptide with TF-antigen at Thr4 and Thr9
T6 construct: also called T4^TF/T9^TF
T6 peptide: HGVT(Galβ1‑3GalNAc)SAPDT(Galβ1‑3GalNAc)RPAPGSTAPP

T7: SEQ ID NO: 346 glycopeptide with TF-antigen at Thr16
T7 construct: also called T16^TF
T7 peptide: HGVTSAPDTRPAPGST(Galβ1‑3GalNAc)APP

T8: SEQ ID NO: 346 glycopeptide with TF-antigen at Ser5 (not fully specified (residue 5))
T8 construct: also called S5^TF
T8 peptide: HGVTSAPDTRPAPGSTAPP

B1: M6 (antibody, human IgG1, kappa, V domains shown)
VH: EVQLVESGGGLVQPGGSLRLSCAASGFTVSSNYMSWVRQAPGKGLEWVSVIYSGGSTYYADSVKGRFTISRDNSKNTLYLQMNSLRAEDTAVYYCARGSTNTYYYDSSGHPWGQGTMVTVSS
VL: not shown
notes: Human IgG
B2: M5 (antibody, human IgG1, kappa, V domains shown)
VH: B1 VH
VL: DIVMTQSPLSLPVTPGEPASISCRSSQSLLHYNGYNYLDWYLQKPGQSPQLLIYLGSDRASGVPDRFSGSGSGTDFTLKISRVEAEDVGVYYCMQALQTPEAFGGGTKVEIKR
notes: Human IgG
B3: M20 (antibody, human IgG1, kappa, V domains shown)
VH: EVQLVESGGGLVQPGGSLRLSCAASGFTFSSYWMHWVRQAPGKGLVWVSHINSDGSSTSYADSVKGRFTISRDNAKNTLYLQMNSLRAEDTAVYYCARELADWGQGTLVTVSS
VL: DVVMTQSPLSLPVTLGQPASISCRSSQSLVYSDGNTYLNWFQQRPGQSPRRLIYQVSNRDSGVPDRFSGSGSGTDFTLKIGRVEAEDVGVYFCMQGTHWPWTFGQGTKVEIKR
notes: Human IgG
B4: M22 (antibody, human IgG1, kappa, V domains shown)
VH: EVQLVESGGGLVQPGGSLRLSCAASGFTVSSNYMSWVRQAPGKGLEWVSVIYSGGTTYYADSVKGRFTISRHNSKNTLYLQMNSLRAEDTAVYYCARDHDPDYGGYYMDVWGKGTTVTVSS
VL: B3 VL
notes: Human IgG
B5: M21 (antibody, human IgG1, kappa, V domains shown)
VH: EVQLVESGGGLVQPGGSLRLSCAASGFTVSSNYMSWVRQAPGKGLEWVSVIYSGGSTYYADSVKGRFTISRDNSKNTLYLQMNSLRAEDTAVYYCARDQEHYFDGSGYYVDYWGQGTLVTVSS
VL: B3 VL
notes: Human IgG
B6: M3 (antibody, human IgG1, lambda, V domains shown)
VH: QLQLQESGPGLVKPSETLSLTCTVSGGSISSSSYYWGWIRQPPGKGLEWIGSIYYSGSTHYNPSLKSRVTISVDTSKNQFSLKLRSVTAADTAVYYCARGVVEVRGNHYYYYYMDVWGKGTTVTVSS
VL: QSVLTQPPSVSGAPGQRVTISCTGSSSNIGAGYDVHWYQQLPGTAPKLLIYGNSYRPSGVPDRFSGSKSGTSASLAITGLQAEDEADYYCQSYDSSLSGSGVFGGGTKLTVLG
notes: Human IgG
B7: M4 (antibody, human IgG1, lambda, V domains shown)
VH: B6 VH with S67R, V73E, R85S, Y113H, V116A
VL: B6 VL with R17G, T44S, L48F, L49F, N53S, S54N, Y55N
notes: Human IgG
B8: M1 (antibody, human IgG1, kappa, V domains shown)
VH: QLQLQESGPGLVKPSETLSLTCTVSGGSISSSRYYWGWIRQPPGKGLEWIGSIYYSGSTYYNPSLKSRVTISVDTSNNQFSLKLTSVTAADTAVYYCARLPESGGYSGWFDPWGQGTLVTVSS
VL: not shown
notes: Human IgG
B9: M2 (antibody, human IgG1, kappa, V domains shown)
VH: B8 VH
VL: not shown
notes: Human IgG
B10: M16 (antibody, human IgG1, kappa, V domains shown)
VH: QVQLVESGGGLVKPGGSLRLSCAASGFTFSDYYMSWIRQAPGKGLEWVSYISSSGTTKYYADSVKGRFTISRDNAKNSLYLQMNSLRAEDTAVYYCVRENLGYCSGGSCFYYYYMDVWGKGTTVTVSS
VL: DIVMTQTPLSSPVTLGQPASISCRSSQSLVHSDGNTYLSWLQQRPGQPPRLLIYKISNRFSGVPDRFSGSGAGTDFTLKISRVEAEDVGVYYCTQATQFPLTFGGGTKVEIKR
notes: Human IgG
B11: M14 (antibody, human IgG1, kappa, V domains shown)
VH: B10 VH
VL: not shown
B12: M10 (antibody, human IgG1, kappa, V domains shown)
VH: B10 VH with F110Y
VL: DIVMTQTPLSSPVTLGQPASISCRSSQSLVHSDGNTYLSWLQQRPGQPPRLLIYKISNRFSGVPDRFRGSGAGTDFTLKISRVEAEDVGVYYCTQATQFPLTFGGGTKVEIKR
notes: Human IgG
B13: M11 (antibody, human IgG1, kappa, V domains shown)
VH: B10 VH with S105T, S108N
VL: not shown
B14: M15 (antibody, human IgG1, kappa, V domains shown)
VH: B10 VH
VL: not shown
notes: Human IgG
B15: M13 (antibody, human IgG1, kappa, V domains shown)
VH: B10 VH with L101I, S105T, S108N
VL: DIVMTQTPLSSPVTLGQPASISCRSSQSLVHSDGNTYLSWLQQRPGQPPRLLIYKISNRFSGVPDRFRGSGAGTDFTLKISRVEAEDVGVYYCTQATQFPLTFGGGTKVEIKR
notes: Human IgG
B16: M9 (antibody, human IgG1, kappa, V domains shown)
VH: B10 VH with F110Y
VL: not shown
notes: Human IgG
B17: M8 (antibody, human IgG1, kappa, V domains shown)
VH: B10 VH with T56S, K58I, V97A, N100R, L101I, F110Y
VL: not shown
B18: M12 (antibody, human IgG1, kappa, V domains shown)
VH: B10 VH with L101I, S105T, S108N
VL: not shown
notes: Human IgG
B19: M18 (antibody, human IgG1, kappa, V domains shown)
VH: B10 VH with T28I, N100D, L101I
VL: not shown
notes: Human IgG
B20: M19 (antibody, human IgG1, kappa, V domains shown)
VH: B10 VH with T28I, N100D, L101I
VL: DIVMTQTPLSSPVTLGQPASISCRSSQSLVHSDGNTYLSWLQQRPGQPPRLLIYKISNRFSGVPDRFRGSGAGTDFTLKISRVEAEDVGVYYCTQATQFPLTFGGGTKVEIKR
notes: Human IgG
B21: M17 (antibody, human IgG1, kappa, V domains shown)
VH: B10 VH with T28I, N100D, L101I
VL: not shown
B22: M23 (antibody, human IgG1, kappa, V domains shown)
VH: B10 VH with L101I, S105T, S108N
VL: not shown

biological target: T9, 100 aa-long synthetic MUC1 peptide (…)5; test: ELISA titration on coated 100-mer peptide, EC50 approximated
T9 construct: also called 100-mer; vaccine 100-mer peptide
Description: (§1) Heavy and light chains of antibodies reactive against MUC1 were generated from plasma of individuals vaccinated with a 100 aa-long synthetic MUC1 peptide (100-mer) representing the unglycosylated tumor associated MUC1 antigen (Kimura et al., 2013, Cancer Prev. Res. (Phila.), 6:18-26). Binding of monoclonal antibodies produced by combinatorial pairing of chains was characterized by ELISA using the vaccine 100-mer peptide consisting of the following sequence ([…])₅ (SEQ ID NO: 2). Briefly, 96-well high-binding ELISA plates were coated with 50 μl of the peptide diluted in carbonate buffer at 2 μg/ml. The wells were washed then blocked with 5% fat-free milk in phosphate-buffered saline (PBS). Antibodies were diluted in 5% milk in PBS with 0.1% TWEEN 20 (PBS-T) and then added to the peptide-coated, blocked wells and incubated at 37° C. for 2 hours, after which the wells were washed. Binding of antibody was probed with an anti-human IgG goat antibody conjugated to horseradish peroxidase (HRP), and signal was detected with 3,3′,5,5′-tetramethylbenzidine (TMB) substrate, which was neutralized with an acid, then the 450 nm absorbance was read. […] Additionally, the EC₅₀ of each antibody was approximated by ELISA titration (Table 1).

| Binder | EC50 [ng/mL] |
| --- | --- |
| B1 | 12 |
| B2 | 100 |
| B3 | 4 |
| B4 | 7 |
| B5 | 11 |
| B6 | 11 |
| B7 | 4 |
| B8 | 11 |
| B9 | 7 |
| B10 | 11 |
| B11 | 2 |
| B12 | 4 |
| B13 | 10 |
| B14 | 5 |
| B15 | 2 |
| B16 | 4 |
| B17 | 4 |
| B18 | 2 |

biological target: T9, 100 aa-long synthetic MUC1 peptide (…)5; test: ELISA on coated 100-mer peptide
Description: as §1

| Binder | binding result |
| --- | --- |
| B19 | binds |
| B20 | binds |
| B21 | binds |
| B22 | binds |

Biological target: T1, Synthetic peptide HGVTSAPDTRPAPGSTAPP
Test: ELISA on coated peptide, antibody 0.01 mg/ml, mean of 3
Description: (§2) Selected antibodies from Table 1 were further characterized for binding to synthetic MUC1 glycopeptides that were synthesized with the GalNac or GaNac-Gal carbohydrates on various serines and threonines along the MUC1 tandem repeat. If placed within the specific epitope recognized by an antibody, the antibody would not bind that particular glycopeptide.

| Binder | ELISA absorbance at 450 nm [absorbance] |
| --- | --- |
| B3 | 1.9 |
| B4 | 2.1 |
| B5 | 2.1 |
| B6 | 0.1 |
| B8 | 0.1 |
| B9 | 0.1 |
| B10 | 2.2 |
| B11 | 2.1 |
| B17 | 2.1 |
| B19 | 2.4 |
| B22 | 2 |

Biological target: T2, Synthetic peptide …
Test: as above
Description: as §2

| Binder | ELISA absorbance at 450 nm [absorbance] |
| --- | --- |
| B3 | 2.8 |
| B4 | 3.1 |
| B5 | 3 |
| B6 | 3.1 |
| B8 | 3.2 |
| B9 | 3.4 |
| B10 | 3.3 |
| B11 | 2.9 |
| B17 | 3 |
| B19 | 3.3 |
| B22 | 2.9 |

Biological target: T3, SEQ ID NO: 346 glycopeptide with …
Test: ELISA on coated glycopeptide, antibody 0.01 mg/ml, mean of 3
Description: as §2

| Binder | ELISA absorbance at 450 nm [absorbance] |
| --- | --- |
| B3 | 2 |
| B4 | 2.2 |
| B5 | 2.1 |
| B6 | 0.1 |
| B8 | 0.1 |
| B9 | 0.1 |
| B11 | 1.6 |
| B17 | 1.6 |
| B19 | 1.5 |
| B22 | 1.7 |

Biological target: T4, SEQ ID NO: 346 glycopeptide with …
Test: as above
Description: as §2

| Binder | ELISA absorbance at 450 nm [absorbance] |
| --- | --- |
| B3 | 1.9 |
| B4 | 2.3 |
| B5 | 2.1 |
| B6 | 0.1 |
| B8 | 0.1 |
| B9 | 0.1 |

Biological target: T5, SEQ ID NO: 346 glycopeptide with …
Test: as above
Description: as §2

| Binder | ELISA absorbance at 450 nm [absorbance] |
| --- | --- |
| B6 | 0.1 |
| B8 | 0.1 |
| B9 | 0.1 |

Biological target: T6, SEQ ID NO: 346 glycopeptide with …
Test: as above
Description: as §2

| Binder | ELISA absorbance at 450 nm [absorbance] |
| --- | --- |
| B3 | 1.9 |
| B4 | 2.3 |
| B5 | 2.2 |
| B6 | 0.1 |
| B8 | 0.1 |
| B9 | 0.1 |

Biological target: T7, SEQ ID NO: 346 glycopeptide with …
Test: as above
Description: as §2

| Binder | ELISA absorbance at 450 nm [absorbance] |
| --- | --- |
| B6 | 0.1 |
| B8 | 0.1 |
| B9 | 0.1 |
| B10 | 2.2 |
| B11 | 2.4 |
| B17 | 2.5 |
| B19 | 2.5 |
| B22 | 2.5 |

Biological target: T8, SEQ ID NO: 346 glycopeptide with …
Test: as above
Description: as §2

| Binder | ELISA absorbance at 450 nm [absorbance] |
| --- | --- |
| B3 | 2.1 |
| B4 | 2.2 |
| B5 | 2.1 |
| B6 | 0.1 |
| B8 | 0.1 |
| B9 | 0.1 |
| B10 | 1.3 |
| B11 | 2.1 |
| B17 | 2.1 |
| B19 | 2.7 |
| B22 | 2.4 |
